These results are taken from patent US20260070987A1.

For orientation: Kd means the equilibrium constant for the complex coming apart. Low readings indicate a tighter complex, high ones a looser complex.

This test addresses equine FcRn (large alpha subunit p51) / equine beta-2-microglobulin complex, biotinylated (equine) (UniProt P30441). Put plainly: SPR (Biacore), pH 6.
Sequence of UniProt P30441 (P30441 21-118, one chain of several): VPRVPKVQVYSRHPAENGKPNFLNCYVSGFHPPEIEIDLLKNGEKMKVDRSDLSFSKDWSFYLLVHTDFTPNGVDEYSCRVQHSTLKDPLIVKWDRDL

B1: equine IgG4 WT (antibody, part only; not given: Variable domains; allotype unconfirmed, not shown: another chain or arm of the molecule)
constant: ASTTAPKVFPLASHSAATSGSTVALGCLVSSYFPEPVTVSWNSGALTSGVHTFPSVLQSSGLYSLSSMVTVPASSLKSQTYICNVAHPASSTKVDKKIVIKECNGGCPAECLQVGPSVFIFPPKPKDVLMISRTPTVTCVVVDVGHDFPDVQFNWYVDGVETHTATTEPKQEQFNSTYRVVSVLPIQHKDWLSGKEFKCKVNNKALPAPVERTISKPTGQPREPQVYVLAPHRDELSKNKVSVTCLVKDFYPTDIDIEWKSNGQPEPETKYSTTPAQLDSDGSYFLYSKLTVETNRWQQGTTFTCAVMHEALHNHYTEKSVSKSPGK
Molecule B1 registered a Kd of 22.5 nM.

B2: equine IgG4 K311A (antibody, part only; not given: variable domains, not shown: another chain or arm of the molecule)
constant: ASTTAPKVFPLASHSAATSGSTVALGCLVSSYFPEPVTVSWNSGALTSGVHTFPSVLQSSGLYSLSSMVTVPASSLKSQTYICNVAHPASSTKVDKKIVIKECNGGCPAECLQVGPSVFIFPPKPKDVLMISRTPTVTCVVVDVGHDFPDVQFNWYVDGVETHTATTEPKQEQFNSTYRVVSVLPIQHADWLSGKEFKCKVNNKALPAPVERTISKPTGQPREPQVYVLAPHRDELSKNKVSVTCLVKDFYPTDIDIEWKSNGQPEPETKYSTTPAQLDSDGSYFLYSKLTVETNRWQQGTTFTCAVMHEALHNHYTEKSVSKSPGK
On to B2, for which the Kd was 24.8 nM.

B3: equine IgG1 T286F (antibody, part only; not given: variable domains, not shown: another chain or arm of the molecule)
constant: ASTTAPKVFALAPGCGTTSDSTVALGCLVSGYFPEPVKVSWNSGSLTSGVHTFPSVLQSSGFYSLSSMVTVPASTWTSETYICNVVHAASNFKVDKRIEPIPDNHQKVCDMSKCPKCPAPELLGGPSVFIFPPNPKDTLMITRTPEVTCVVVDVSQENPDVKFNWYMDGVEVRFATTRPKEEQFNSTYRVVSVLRIQHQDWLSGKEFKCKVNNQALPQPIERTITKTKGRSQEPQVYVLAPHPDELSKSKVSVTCLVKDFYPPEINIEWQSNGQPELETKYSTTQAQQDSDGSYFLYSKLSVDRNRWQQGTTFTCGVMHEALHNHYTQKNVSKNPGK
As to B3, the Kd worked out at 18.5 nM. This Kd and that of the molecule before are within 1.5-fold of each other.

B4: equine IgG1 Y436L (antibody, part only; not given: variable domains, not shown: another chain or arm of the molecule)
constant: ASTTAPKVFALAPGCGTTSDSTVALGCLVSGYFPEPVKVSWNSGSLTSGVHTFPSVLQSSGFYSLSSMVTVPASTWTSETYICNVVHAASNFKVDKRIEPIPDNHQKVCDMSKCPKCPAPELLGGPSVFIFPPNPKDTLMITRTPEVTCVVVDVSQENPDVKFNWYMDGVEVRTATTRPKEEQFNSTYRVVSVLRIQHQDWLSGKEFKCKVNNQALPQPIERTITKTKGRSQEPQVYVLAPHPDELSKSKVSVTCLVKDFYPPEINIEWQSNGQPELETKYSTTQAQQDSDGSYFLYSKLSVDRNRWQQGTTFTCGVMHEALHNHLTQKNVSKNPGK
B4 displayed a Kd of 12.4 nM.

B5: equine IgG1 Y436V (antibody, part only; not given: variable domains, not shown: another chain or arm of the molecule)
constant: ASTTAPKVFALAPGCGTTSDSTVALGCLVSGYFPEPVKVSWNSGSLTSGVHTFPSVLQSSGFYSLSSMVTVPASTWTSETYICNVVHAASNFKVDKRIEPIPDNHQKVCDMSKCPKCPAPELLGGPSVFIFPPNPKDTLMITRTPEVTCVVVDVSQENPDVKFNWYMDGVEVRTATTRPKEEQFNSTYRVVSVLRIQHQDWLSGKEFKCKVNNQALPQPIERTITKTKGRSQEPQVYVLAPHPDELSKSKVSVTCLVKDFYPPEINIEWQSNGQPELETKYSTTQAQQDSDGSYFLYSKLSVDRNRWQQGTTFTCGVMHEALHNHVTQKNVSKNPGK
As for B5, the equilibrium dissociation constant (Kd) turned out to be 9.06 nM.

B6: equine IgG1 Y436Q (antibody, part only; not given: variable domains, not shown: another chain or arm of the molecule)
constant: ASTTAPKVFALAPGCGTTSDSTVALGCLVSGYFPEPVKVSWNSGSLTSGVHTFPSVLQSSGFYSLSSMVTVPASTWTSETYICNVVHAASNFKVDKRIEPIPDNHQKVCDMSKCPKCPAPELLGGPSVFIFPPNPKDTLMITRTPEVTCVVVDVSQENPDVKFNWYMDGVEVRTATTRPKEEQFNSTYRVVSVLRIQHQDWLSGKEFKCKVNNQALPQPIERTITKTKGRSQEPQVYVLAPHPDELSKSKVSVTCLVKDFYPPEINIEWQSNGQPELETKYSTTQAQQDSDGSYFLYSKLSVDRNRWQQGTTFTCGVMHEALHNHQTQKNVSKNPGK
B6 gave a Kd of 14.6 nM. This Kd is about 1.6-fold higher than that of the molecule before.

B7: equine IgG1 Y436M (antibody, part only; not given: variable domains, not shown: another chain or arm of the molecule)
constant: ASTTAPKVFALAPGCGTTSDSTVALGCLVSGYFPEPVKVSWNSGSLTSGVHTFPSVLQSSGFYSLSSMVTVPASTWTSETYICNVVHAASNFKVDKRIEPIPDNHQKVCDMSKCPKCPAPELLGGPSVFIFPPNPKDTLMITRTPEVTCVVVDVSQENPDVKFNWYMDGVEVRTATTRPKEEQFNSTYRVVSVLRIQHQDWLSGKEFKCKVNNQALPQPIERTITKTKGRSQEPQVYVLAPHPDELSKSKVSVTCLVKDFYPPEINIEWQSNGQPELETKYSTTQAQQDSDGSYFLYSKLSVDRNRWQQGTTFTCGVMHEALHNHMTQKNVSKNPGK
In turn, B7 displayed a Kd of 11.1 nM.

B8: equine IgG1 Y436S (antibody, part only; not given: Variable domains, not shown: another chain or arm of the molecule)
constant: ASTTAPKVFALAPGCGTTSDSTVALGCLVSGYFPEPVKVSWNSGSLTSGVHTFPSVLQSSGFYSLSSMVTVPASTWTSETYICNVVHAASNFKVDKRIEPIPDNHQKVCDMSKCPKCPAPELLGGPSVFIFPPNPKDTLMITRTPEVTCVVVDVSQENPDVKFNWYMDGVEVRTATTRPKEEQFNSTYRVVSVLRIQHQDWLSGKEFKCKVNNQALPQPIERTITKTKGRSQEPQVYVLAPHPDELSKSKVSVTCLVKDFYPPEINIEWQSNGQPELETKYSTTQAQQDSDGSYFLYSKLSVDRNRWQQGTTFTCGVMHEALHNHSTQKNVSKNPGK
As for B8, the Kd was determined as 13.5 nM.

B9: equine IgG1 Y436W (antibody, part only; not given: Variable domains, not shown: another chain or arm of the molecule)
constant: ASTTAPKVFALAPGCGTTSDSTVALGCLVSGYFPEPVKVSWNSGSLTSGVHTFPSVLQSSGFYSLSSMVTVPASTWTSETYICNVVHAASNFKVDKRIEPIPDNHQKVCDMSKCPKCPAPELLGGPSVFIFPPNPKDTLMITRTPEVTCVVVDVSQENPDVKFNWYMDGVEVRTATTRPKEEQFNSTYRVVSVLRIQHQDWLSGKEFKCKVNNQALPQPIERTITKTKGRSQEPQVYVLAPHPDELSKSKVSVTCLVKDFYPPEINIEWQSNGQPELETKYSTTQAQQDSDGSYFLYSKLSVDRNRWQQGTTFTCGVMHEALHNHWTQKNVSKNPGK
In the case of B9, the Kd stood at 10.2 nM.

B10: equine IgG1 T286G (antibody, part only; not given: variable domains, not shown: another chain or arm of the molecule)
constant: ASTTAPKVFALAPGCGTTSDSTVALGCLVSGYFPEPVKVSWNSGSLTSGVHTFPSVLQSSGFYSLSSMVTVPASTWTSETYICNVVHAASNFKVDKRIEPIPDNHQKVCDMSKCPKCPAPELLGGPSVFIFPPNPKDTLMITRTPEVTCVVVDVSQENPDVKFNWYMDGVEVRGATTRPKEEQFNSTYRVVSVLRIQHQDWLSGKEFKCKVNNQALPQPIERTITKTKGRSQEPQVYVLAPHPDELSKSKVSVTCLVKDFYPPEINIEWQSNGQPELETKYSTTQAQQDSDGSYFLYSKLSVDRNRWQQGTTFTCGVMHEALHNHYTQKNVSKNPGK
With B10, the Kd turned out to be 15 nM. The Kd values of the last two molecules are within 1.5-fold of each other.

B11: equine IgG1 Y436T (antibody, part only; not given: variable domains, not shown: another chain or arm of the molecule)
constant: ASTTAPKVFALAPGCGTTSDSTVALGCLVSGYFPEPVKVSWNSGSLTSGVHTFPSVLQSSGFYSLSSMVTVPASTWTSETYICNVVHAASNFKVDKRIEPIPDNHQKVCDMSKCPKCPAPELLGGPSVFIFPPNPKDTLMITRTPEVTCVVVDVSQENPDVKFNWYMDGVEVRTATTRPKEEQFNSTYRVVSVLRIQHQDWLSGKEFKCKVNNQALPQPIERTITKTKGRSQEPQVYVLAPHPDELSKSKVSVTCLVKDFYPPEINIEWQSNGQPELETKYSTTQAQQDSDGSYFLYSKLSVDRNRWQQGTTFTCGVMHEALHNHTTQKNVSKNPGK
Molecule B11 returned a Kd of 15.2 nM.

B12: equine IgG1 Y436H (antibody, part only; not given: variable domains, not shown: another chain or arm of the molecule)
constant: ASTTAPKVFALAPGCGTTSDSTVALGCLVSGYFPEPVKVSWNSGSLTSGVHTFPSVLQSSGFYSLSSMVTVPASTWTSETYICNVVHAASNFKVDKRIEPIPDNHQKVCDMSKCPKCPAPELLGGPSVFIFPPNPKDTLMITRTPEVTCVVVDVSQENPDVKFNWYMDGVEVRTATTRPKEEQFNSTYRVVSVLRIQHQDWLSGKEFKCKVNNQALPQPIERTITKTKGRSQEPQVYVLAPHPDELSKSKVSVTCLVKDFYPPEINIEWQSNGQPELETKYSTTQAQQDSDGSYFLYSKLSVDRNRWQQGTTFTCGVMHEALHNHHTQKNVSKNPGK
The molecule B12 came in with a Kd of 19.1 nM.

B13: equine IgG1 Y436N (antibody, part only; not given: variable domains, not shown: another chain or arm of the molecule)
constant: ASTTAPKVFALAPGCGTTSDSTVALGCLVSGYFPEPVKVSWNSGSLTSGVHTFPSVLQSSGFYSLSSMVTVPASTWTSETYICNVVHAASNFKVDKRIEPIPDNHQKVCDMSKCPKCPAPELLGGPSVFIFPPNPKDTLMITRTPEVTCVVVDVSQENPDVKFNWYMDGVEVRTATTRPKEEQFNSTYRVVSVLRIQHQDWLSGKEFKCKVNNQALPQPIERTITKTKGRSQEPQVYVLAPHPDELSKSKVSVTCLVKDFYPPEINIEWQSNGQPELETKYSTTQAQQDSDGSYFLYSKLSVDRNRWQQGTTFTCGVMHEALHNHNTQKNVSKNPGK
In the case of B13, the Kd is 23.1 nM.

B14: equine IgG1 Y436K (antibody, part only; not given: variable domains, not shown: another chain or arm of the molecule)
constant: ASTTAPKVFALAPGCGTTSDSTVALGCLVSGYFPEPVKVSWNSGSLTSGVHTFPSVLQSSGFYSLSSMVTVPASTWTSETYICNVVHAASNFKVDKRIEPIPDNHQKVCDMSKCPKCPAPELLGGPSVFIFPPNPKDTLMITRTPEVTCVVVDVSQENPDVKFNWYMDGVEVRTATTRPKEEQFNSTYRVVSVLRIQHQDWLSGKEFKCKVNNQALPQPIERTITKTKGRSQEPQVYVLAPHPDELSKSKVSVTCLVKDFYPPEINIEWQSNGQPELETKYSTTQAQQDSDGSYFLYSKLSVDRNRWQQGTTFTCGVMHEALHNHKTQKNVSKNPGK
With B14, the Kd was determined as 18 nM. This Kd and that of the molecule before are within 1.5-fold of each other.

B15: equine IgG1 Y436I (antibody, part only; not given: variable domains, not shown: another chain or arm of the molecule)
constant: ASTTAPKVFALAPGCGTTSDSTVALGCLVSGYFPEPVKVSWNSGSLTSGVHTFPSVLQSSGFYSLSSMVTVPASTWTSETYICNVVHAASNFKVDKRIEPIPDNHQKVCDMSKCPKCPAPELLGGPSVFIFPPNPKDTLMITRTPEVTCVVVDVSQENPDVKFNWYMDGVEVRTATTRPKEEQFNSTYRVVSVLRIQHQDWLSGKEFKCKVNNQALPQPIERTITKTKGRSQEPQVYVLAPHPDELSKSKVSVTCLVKDFYPPEINIEWQSNGQPELETKYSTTQAQQDSDGSYFLYSKLSVDRNRWQQGTTFTCGVMHEALHNHITQKNVSKNPGK
Take B15: the Kd worked out at 7.84 nM.

B16: equine IgG1 Y436R (antibody, part only; not given: variable domains, not shown: another chain or arm of the molecule)
constant: ASTTAPKVFALAPGCGTTSDSTVALGCLVSGYFPEPVKVSWNSGSLTSGVHTFPSVLQSSGFYSLSSMVTVPASTWTSETYICNVVHAASNFKVDKRIEPIPDNHQKVCDMSKCPKCPAPELLGGPSVFIFPPNPKDTLMITRTPEVTCVVVDVSQENPDVKFNWYMDGVEVRTATTRPKEEQFNSTYRVVSVLRIQHQDWLSGKEFKCKVNNQALPQPIERTITKTKGRSQEPQVYVLAPHPDELSKSKVSVTCLVKDFYPPEINIEWQSNGQPELETKYSTTQAQQDSDGSYFLYSKLSVDRNRWQQGTTFTCGVMHEALHNHRTQKNVSKNPGK
Consider B16, for which the Kd is 25.6 nM.
